# Publication PMC10090083, “Structural basis of impaired disaggregase function in the oxidation-sensitive SKD3 mutant causing 3-methylglutaconic aciduria” (Nature Communications, 2023)
# Biological target: the molecule itself
# Test: not stated; oligomeric state of the isolated Ank domains in solution (Supplementary Fig. 1a, b); method not given
protein,measurement,value
"Ank domain of human SKD3 isoform-1 (ANK_(iso1), residues 132-351) (domain or fragment, UniProt Q9H078 132-351, looked up, human SKD3 (CLPB) isoform-1, Ank domain construct, residues 132-351; TEV-cleavable tag; also called isolated Ank domain of SKD3; source: E. coli BL21-CodonPlus (DE3)-RIL, purified (IMAC, anion exchange, SEC); not shown: His6-SUMO, N-terminal, cleaved) SNKDAALLEAARANNMQEVSRLLSEGADVNAKHRLGWTALMVAAINRNNSVVQVLLAAGADPNLGDDFSSVYKTAKEQGIHSLEDGGQDGASRHITNQWTSALEFRRWLGLPAGVLITREDDFNNRLNNRASFKGCTALHYAVLADDYRTVKELLDGGANPLQRNEMGHTPLDYAREGEVMKLLRTSEAKYQEKQRKREAEERRRFPLEQRLKEHIIGQE",stoichiometry N,2
